Measured values published in PMC7199855, “GRAF2, WDR44, and MICAL1 mediate Rab8/10/11–dependent export of E-cadherin, MMP14, and CFTR ΔF508” (The Journal of Cell Biology, 2020).

How the values were obtained:
GST–WDR44 ΔC = target: T1, GST–WDR44 ΔC (human, UniProt Q5JSH3 1-472); assay: pull-down; in vitro: GST-tagged WDR44 or MICAL1 domains on glutathione sepharose beads with an equal amount of Thrombin-released GRAF2 SH3, 30 min 4°C, washed in bacterial lysis buffer (20 mM Hepes pH 7.4, 1 mM DTT, NaCl); Coomassie staining; conditions: both partners purified
T1 construct: aa 1–472 of human WDR44 (N-tag clone: forward primer begins at codon 2); source: E. coli BL21(DE3) pLysS, purified on glutathione sepharose beads; not shown: GST, N-terminal, kept
T1 sequence (looked up): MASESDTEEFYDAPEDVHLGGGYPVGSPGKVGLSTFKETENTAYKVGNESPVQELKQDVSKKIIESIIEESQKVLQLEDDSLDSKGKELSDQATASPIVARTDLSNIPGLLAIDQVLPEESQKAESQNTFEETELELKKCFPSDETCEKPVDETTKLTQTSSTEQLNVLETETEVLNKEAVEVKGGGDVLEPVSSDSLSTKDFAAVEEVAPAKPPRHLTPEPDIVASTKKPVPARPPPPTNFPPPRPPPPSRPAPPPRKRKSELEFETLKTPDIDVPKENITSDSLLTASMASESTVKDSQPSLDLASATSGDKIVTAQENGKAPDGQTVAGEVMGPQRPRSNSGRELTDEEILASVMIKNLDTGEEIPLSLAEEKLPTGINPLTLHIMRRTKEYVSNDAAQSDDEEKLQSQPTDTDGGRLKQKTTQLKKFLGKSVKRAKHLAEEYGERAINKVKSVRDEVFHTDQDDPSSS

GST–MICAL1 ΔMOΔCH = target: T2, GST–MICAL1 ΔMOΔCH (human, UniProt Q8TDZ2 651-1067); assay: as above; conditions: both partners purified
T2 construct: aa 651–1067 of human MICAL1; source: E. coli BL21(DE3) pLysS, purified on glutathione sepharose beads; not shown: GST, N-terminal, kept
T2 sequence (looked up): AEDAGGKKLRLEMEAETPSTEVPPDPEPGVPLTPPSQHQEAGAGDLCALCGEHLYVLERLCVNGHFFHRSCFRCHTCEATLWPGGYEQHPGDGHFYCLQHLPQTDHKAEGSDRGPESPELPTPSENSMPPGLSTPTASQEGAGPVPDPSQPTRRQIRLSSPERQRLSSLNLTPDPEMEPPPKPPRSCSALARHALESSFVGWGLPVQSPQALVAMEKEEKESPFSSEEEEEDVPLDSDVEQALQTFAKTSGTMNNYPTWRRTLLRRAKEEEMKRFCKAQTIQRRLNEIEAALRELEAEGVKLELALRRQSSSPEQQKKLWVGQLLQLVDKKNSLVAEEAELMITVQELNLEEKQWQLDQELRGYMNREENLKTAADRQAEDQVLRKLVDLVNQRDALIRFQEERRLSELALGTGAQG

B1: GRAF2 SH3 (released from GST by Thrombin) (domain or fragment, human, UniProt A1A4S6 718-786, looked up)
chain: ATVADKPPESIRSRKARAVYPCEAEHSSELSFEIGAIFEDVQTSREPGWLEGTLNGKRGLIPQNYVKLL
notes: SH3 domain construct, aa 718–786 of human GRAF2; same construct as m2 with GST cut off; source: E. coli BL21(DE3) pLysS; released from GST-GRAF2 SH3 beads with Thrombin; not shown: GST, N-terminal, cleaved
GST–WDR44 ΔC
  binding result: binds
GST–MICAL1 ΔMOΔCH
  binding result: binds
